Results reported in paper doi:10.1101/2024.10.11.617910 (bioRxiv, 2024).

Target: beta-amyloid 42 peptide (UniProt P05067)
Test: SiMoA

B1: Donanemab (antibody, V domains shown)
VH: QVQLVQSGAEVKKPGSSVKVSCKASGYDFTRYYINWVRQAPGQGLEWMGWINPGSGNTKYNEKFKGRVTITADESTSTAYMELSSLRSEDTAVYYCAREGITVYWGQGTTVTVSS
VL: DIVMTQTPLSLSVTPGQPASISCKSSQSLLYSRGKTYLNWLLQKPGQSPQLLIYAVSKLDSGVPDRFSGSGSGTDFTLKISRVEAEDVGVYYCVQGTHYPFTFGQGTKLEIK
B1: no binding.
